Biological target: covalently linked hexamer of ClpX-ΔN with a single biotinylation site (ClpX6B)
Assay: single-molecule TIRF microscopy (dwell time); ClpX6B (10 nM, preincubated with 2 mM ATP) held by streptavidin on biotinylated BSA on DDS-Tween-20 passivated coverslips; 5 nM of ssrA (Cy3) and ssrADD (Cy5) substrates flowed in with 100 uM MTX, 2 mM ATP, 25 ug/ml BSA, Trolox and oxygen scavenger; ClpX reaction buffer (25 mM Hepes pH 7.4, 100 mM KCl, 20 mM MgCl2, 10% glycerol); 30 °C; dwell times fitted with a single exponential

reduction of dwell time against Ref11: 50%
Substance: cpGFP::DHFR::polyG11::ssrA, MTX-bound
